From the DeepSol protein solubility set

Assay: soluble on expression in E. coli; label from the status in PepcDB or PDB records

Sequence	soluble on expression in E. coli
MGSDKIHHHHHHMRAHVTKKTLSEGLGLLERVIPSRSSNPLLTALKVEASEAGLTLSGTNLEIDLSYFVPAEVQAPQSFVIPAHLFAQIVRNLGGELVELELTGGELSVRAGGSDFKLQTGDLEAYPPLSFPTHTDVSLDAAELARALGSVRYAASNEAFQAVFRGIKLEHRPASARVVASDGYRVAIRDFPASGDGRNLIVPARSADELIRVLKDGEARFTYGEGLLSVTTDRVRMNLKLLDGEFPDYERVIPKDVKLQVTLPATALKEAVGRVAVLADKNANNRVEFLVSEGKLRLAAEGDYGRAQDTLDVVQGGAEPAMSLAFNARHVLDALGPIEGDAELLFSGSTSPAIFRASGGGDYMAVMVTLRV	not soluble
MGSDKIHHHHHHMRASVSPDIFPPRGHEAKRLSIVDAAAGVFCREGFAGANIDLIAAEAGVSRQTVYNHHGDKEKLFMAVVRDLTDRCNVGIFATIATFPDQPGDLEADLIGFAVRLNQNCICNRDGKFLRKLIQTEGERYPELFAEWREQGPGTTLPAIAARFARLAYGGYLTIDDPDVAARQFFGLVNAELQTTFMLGGTPREDEVVRSATNGVRTFLRAFGKRPAPGSVKKHIALANA	not soluble
MGSDKIHHHHHHMRDLLNDLSEGLSHPDPILRAQIQMQKPLPKRFYKDVTVADVEEGGFTILLDGKPLRTPAKKPLVAPSRALADLLRDEWDAQKEVVNPVVMPVSRHVNTAIDGIASDTQAVFEDILRFSSSDLLCYRAGDPEALVARQTDYWDPVLDWATNVLGARFILVEGVMHRDQPREAIAAFAVTLKKYDTPIALAALHTMTSLTGSAILALALAEGELTLEEAWALAHLDEDWTAEQWGEDEEALERRAVRLIDMRAALNVLESLKSAS	not soluble
MGSDKIHHHHHHMREISMDWNDLRFFLEVARTSSLTKTAIKLKVSQSTVSRRIGALESSLKTRLFLHHQTGYFLTDVGKEVLKYAEDVEGKVGTLEKKISGRDLAPAGIVRLATAVTLANHLIIPQLPRFMACYPEIILELVTGVNTVSVVRNDADIALRLVRPEQNSLKIRKVGVVASAVYGSETYVREHPAPEDNPIIGRSFITWDKSFSHLPSARWLNEHFPDMTSTLALTSLVTQIAAANAGLGLAVLPCFIAAQNSDLVEVIHTQRVFSEDLWLVSHTDLIASSRIRVVADFLMEIIAEAHLA	not soluble
MGSDKIHHHHHHMREVFQRLKQAILEKQDTMLLTIGTSSGSTPRSQGARMLVSAEGRIAGTVGGGAVEFQAEQVAKKLVLEKENAQRQFILAPNNIADLGMVCGGNVTIFFHYLSWETPFLKELCESIETHFQNNQQGWLVTELDQNNLGKVSFYSETGELIGSTSWEGELSLLPKGIHCEQKEDIIFLTEAILQVGKVYIFGSGHVARALVPILNYLSFYCVVVDDRPEFLTAQAFPQAEELRVIPLENLAAFIEITADDYGIVITRGHNFDFIVAKQLLETPAKYIGVMGSKHKIASQVRRLKEVGYTMTEIERIFMPIGLDIAAETPEELAISIAGELIQQRYQ	not soluble
MGSDKIHHHHHHMRFIAGPLNKQLLQNLLGEVIESCTRVRAAVAYASRDNMKLFEACAQHLKPLEFFGRYDHTVAVDPAVLKWFLDKASPNYDCKLVPDILHAKIIWWVDAGAYIGSANLSDRAWISNIEAGTFLPHDELVETGMERELQRFFEEVDDRARPLTKEIYQEQLRLADRRSELSKREYGLEQQFDKDRLLPKNHGLVFVDTKRSSEKRFQKFEQDWNDTLQVMRSIASRVAAPGAKPAWIDASVAPGVQADQFLHAYYYKQVKDGNRHPYEEFFDRNSKNPELALRDALEWWHDADFDHSFEERTIYEWSPRLRELLARDRILKLTEQEFVDAVSRVHAIRDHAIKQENEHLGLPDRPQAGDDKVEKFGEWLWRQRSREGRTVLELLNYVVWGNGSVSARLWNAIRSDDWAIPHIGLSSLGEIVGWARPDEYPPRNMRTSKGLRALGYNVRIGV	not soluble
MGSDKIHHHHHHMRGRGMDIFISKKMRNFILLAQTNNIARAAEKIHMTASPFGKSIAALEEQIGYTLFTRKDNNISLNKAGQELYQKLFPVYQRLSAIDNEIHNSGRRSREIVIGIDNTYPTIIFDQLISLGDKYEGVTAQPVEFSENGVIDNLFDRQLDFIISPQHVSARVQELENLTISELPPLRLGFLVSRRYEERQEQELLQELPWLQMRFQNRANFEAMIDANMRPCGINPTIIYRPYSFMAKISAVERGHFLTVIPHFAWRLVNPATLKYFDAPHRPMYMQEYLYSIRNHRYTATMLQHIAEDRDGTSH	not soluble
MGSDKIHHHHHHMRHAYRQFGPGTLYTVRLLRALDYLWRHLDEPLLLDRLAEEACFSRFHFHRLYRNLMGETVMESRQRMLLHRAAGELGRADRPLASVAVRAGFSSSAAFIRAFAGRYGETPGRYRQRRLMFLNQRERTMRQVEIVERDAVKVLMRHHRGPYMEIGKAFDALRAVQGPQQGVGAPSRSFGLYLDDQAQTPAADCRSIACATVPAFMEGKAMDGFEWGSIPAGRYAAVLHTGPYSELGECWDWLYRHWLPASGEMPGDTPCVEEYLNAPYDTPPAELKTLLLLSLA	not soluble
MGSDKIHHHHHHMRIAIDPFMHRHLSLEELPRKVRELGYDWIEMSPRADFLEWFKAPRVFPQRMKEFKKALAAENVKIASLLPMYRWASNDETERKAAVKHWKRAIEIAVEMEIDTMNSEFGRGPHPDKGSCYCCHTGSMIEACEDAWWRSMEELVPVFERENIQLNIEPHPEDWCETLQPALDIIRTVNSKNVKFLYCAPHTFYFGDDTKAMLREAKDVLAHVHVGDTFNHKASSGLRYILNPPGTQARVHQHLNIGQGEVPWDDFFGTLAEIGFDGTMTACVFAWEDRADHSGKFMLSEMNRYIEKYWPK	not soluble
MGSDKIHHHHHHMRIEITPISESALVCRLNAPSELGKQQKLWAFAAALGQHDRIEEVVVGMNNLTVFTRFDTDLATLADELQYVWEHTAVTDHQGKLVEIPVCYGGEYGPDLAEVAAFHQTVISEIVRRHTAQTYTVFMMGFQPGFPYLGGLPEALHTPRRAVPRTSVPAGSVGIGGSQTGVYPFASPGGWQIIGRTELPLFRADLNPPTLLAAGDQVRFVAERIEP	not soluble
MGSDKIHHHHHHMRILLVGHYPPHKGGVARHVKQLKECLEKRHEVYVLTYGTVAVEEENVYSVKVPNIFGIRGTSFALLASKKIVKLHEKYNFDLVHAHYVGTTSFAGVLAKRKTGVPLVITAHGSDLEFMSRLPLGGYFVKTSIMEADYVIAVSHYLAKKALELGASRISVIPNWTELSGESERKYILFLGRVASYKGIEDFIELAKRFPGEEFVVAGEGPLLKKLRAKSPPNVKFLGYVPAEDVLKKAKVLVLPSKREGFGLVVIEANSFKVPVLGRNVGGIRELIRFSKNGYLFEDIEDAITYLKTLLVPKTNVKLGSIGKRISKGHSQEKMCERVEEIYREVIS	not soluble
MGSDKIHHHHHHMRIQFGYVAMSMELANASPSKTMTATQFEKIEDHEAGLRKLERIAKTNLHNCLRLLKHNLAYQISFFRLSSKLVPLVNHPLTEGWKYELAIAEELQAVGEFASEHQMRIDFHPDHFVVLNSEAKEITRRSLQTLLYHYKLLKGMEIDPRHRCVLHVGGKKKGVEAGLEQFIENTASIPKSLLSMIMLENDDKSYTIDDVLYLGEKLAIPVVLDIHHHDVLHRSKSLQETWQRIVATWEDSPLPVKIHLSSPLSGEDDPRHHDYINADRFIAFLHEIGADAVDHLHVMIEAKKKDLALFQLMKDLAEYDEITVVSKSAVEFNP	not soluble
MGSDKIHHHHHHMRKIPPLRALQVFEAAARLQHFSRAAQELCITQSAVSHQVRLLEEHFALPLFRREGRSLRLTDKGEQLFQETARIFNELGELNLRLLGEKPEALRLAVYSSFAVKWLIPRLSGFRRLHPGIQVRLDMITEDPVLSHSSADMFITGQQDQKGYWQQLLHAERLIPVCSPELISSSDKLDLDWLSTQQLLTVDEGPLGLDWQRWFEHHRVAQPEEEQQQLFSHVLMAIEAAIAGQGVALASDFMVLDDIAKQRLVALPFAGIDTGFEFNFLCKQRRLQEPAIAAFVHWLTQQH	not soluble
MGSDKIHHHHHHMRKPKITVIGGGTGSPVILKSLREKDVEIAAIVTVADDGGSSGELRKNMQQLTPPGDLRNVLVAMSDMPKFYEKVFQYRFSEDAGAFAGHPLGNLIIAGLSEMQGSTYNAMQLLSKFFHTTGKIYPSSDHPLTLHAVFQDGTEVAGESHIVDHRGIIDNVYVTNALNDDTPLASRRVVQTILESDMIVLGPGSLFTSILPNIVIKEIGRALLETKAEIAYVCNIMTQRGETEHFTDSDHVEVLHRHLGRPFIDTVLVNIEKVPQEYMNSNRFDEYLVQVEHDFVGLCKQVSRVISSNFLRLENGGAFHDGDLIVDELMRIIQVKK	not soluble
MGSDKIHHHHHHMRLLSQVNLNSLKIVESAARHGNFTRAGEEQFITASAVSQRVKSLEDQLRFKIFQRGGNAVSLTPEGETYVSRVREALERIVAASMEATGQSQEHVLKISVLPTFAARWLFPRLPEFQRRYPDIVMRVSTSYATHEFSTSDFDLEIRYGDGHFNGLPSDLLFREDLTPVCSRKLFHEVLGDKPVSKVEPDDLRHFTLLHSDTCTQNWQSWLGFAGASFVLSETKSIYFDSCMMSYEAANAGMGFAVANRAYMASDIRAEKLVAPFAVHHPNSAGWYFVSPHKCLAARKVLLFKQWVMAEAALTQRQLDSEIRDLATEAV	not soluble
MGSDKIHHHHHHMRLSNGDVIVFAGDSITDREKSNNAPLGYGYVNLFYNLMLAKHPETKITVINSGISGNTVIDLIDRWDDDVLSYKPNWISILIGINDLHKFLGGLTTFNPENYYENLRRLLKYTRKVLNNVNFILMTPFYISRNKLEGGFRAKVLELLPQYIEKVRLLSNEFSATYIDLHDTFKKLVNIREPNVYAPEPVHPNFTGHMVIALKLLEALEI	not soluble
MGSDKIHHHHHHMRNKIEKGVDLNLRQFIKSLGYIAGGTALLASTPWLSSCTPEKLKEIRNEKARIALIGTGSRGQYHIHNLKEIPHARIVAVCDNYAPNLQQAVELCPGAKAYTDYRKLLESADIDGVIISTPLNWHAPIVLDALAAGKHVFCEKAMARTLDECKAIYDAYQTTNQVLYFCMQRMYDEKYIKGMQMIHSGLIGDVVGMRCHWFRNADWRRPVPSPELEHQINWRLYKESSGGLMTELACHQLEVCNWAAKRMPVSIIGMGDIVYWKDGREVYDSVNVTYRYSDGTKIAYESLISNKFNGMEDQILGHKGTMEMAKGIYYLEEDHSTSGIRQLIGQVKDKVFAAIPTAGPSWRPETKMEYTPHFVIEGDINVNNGLSMIGADKDGSDIILSSFCQSCITGEKAQNVVEEAYCSTVLCLLGNQAMEEERHILFPDEYKIPYMKF	not soluble
MGSDKIHHHHHHMRNLGNTNMKIKRVGFGGIPIQRITQDDTNLVINELEKQGINFIDSARGYTISEEAIGIAIEGKRDKFFLATKSMSRDYDSMKRDVEISLNNFKTDFIDLYQFHNVKEEEYDNLFKDKMAYSALLEAKEQGKIKHIGITSHNLNTIEKAIEDGKFDTIQFPYNIVEGQADEVFKKAHEKGIGIIVMKPLAGGALDNATLAIKYILSKDYIDVVIPGMESVEQVRQNVAVLENLVLDEKDNKEIEEIRNSLGKKFCRRCEYCMPCAVGINIPLSFLCEGYYTRYGLKEWAKEKYEVMDVKPTECIDCGLCESRCPYELPIREMLKTVVEKLG	not soluble
MGSDKIHHHHHHMRNPIHKRLEKFESWKNITFMLCLCERMYPNFYLFCQMTEQMDKAKIYQNILNLVWEYLTVKNAKINFENQLEKLENIIPDVNNYEFFGVVPALDACEGLSELLHAIIAGETLEKAIKISQLSLQTVITLLETQQDKAFSEAELKQSEEIELELDVQWQIYRTLNAHEERDIRLILDLKNELRESRVSNIGIEIAQ	not soluble
MGSDKIHHHHHHMRNTDTYSYLVRDGHDLVHDPVPGILGPRPIGWISTCDSSGRPRLQTYSFFGIFNYVPPIVGFASVGGTESVNNAELTGEFAYNLATRPLAGCVNQTIVPALTEMDEFERSGLTKIRSIAIAAPRVAESPVSLECRVTSIQQLNGLDSEALNTWLVLGEVVAVHINRELLCDGFYDTVAAQPILRGGGACDYFEVLQAGKFRMTHPR	not soluble
